“Also recorded” adds a separate entry of the source.
Tests used:
[1] = system: fibroblasts (thrombin receptor, PAR 1); assay: α-thrombin-induced calcium mobilization in fibroblasts; assay type: cell-based
Description: (§1) A variation of the calcium mobilization assay uses fibroblasts (which express a single receptor for thrombin, PAR 1), umbilical vein endothelial cells, or other cells which express the cloned thrombin receptor, and which grow in monolayers on the bottom of plastic wells.
(§2) Fibroblasts or endothelial cells were grown in 24-96 well plates and loaded with the fluorescent Ca^2+ indicator fura-2 acetyloxymethylester (5 μM, Molecular Probes Inc.) by incubation for 60 min. in HEPES-Tyrode's buffer at 37° C. After washing the cells, the fluorescence of the cells was monitored on a thermostatically controlled heated pad at 37° C. for 1 min, then the cells were incubated with α-thrombin (1 to 5 nM) in the absence or presence of a BK analog. Fluorescence was detected by a Perkin-Elmer LS-50B Luminescence Spectrofluorometer. Excitation was measured at 340 and 380 nm wavelength and emission was assessed at 510 nm. The cytosolic Ca^2+ levels were determined as described above. The Rmax value was determined using 10 mM Ca^2+ in the presence of 20 μM Ionophor A23187; Rmin was determined in the presence of 20 mM EDTA.
(§3) The ability of BK analogs to inhibit α-thrombin-induced calcium mobilization in fibroblasts and human umbilical vein endothelial cells (HUVEC) was assayed as described in Example 1C.

[2] = system: human umbilical vein endothelial cells (HUVEC); assay: α-thrombin-induced calcium mobilization in HUVEC; assay type: cell-based
Description: as §1, §2, §3

[3] = system: α-thrombin binding to platelets; assay: 125I-α-thrombin binding to platelets; details: HK, LK, domain 3: molar excess

B1: HK: human high molecular weight kininogen (protein, UniProt P01042 19-644, looked up)
Kininogen-1: QESQSEEIDCNDKDLFKAVDAALKKYNSQNQSNNQFVLYRITEATKTVGSDTFYSFKYEIKEGDCPVQSGKTWQDCEYKDAAKAATGECTATVGKRSSTKFSVATQTCQITPAEGPVVTAQYDCLGCVHPISTQSPDLEPILRHGIQYFNNNTQHSSLFMLNEVKRAQRQVVAGLNFRITYSIVQTNCSKENFLFLTPDCKSLWNGDTGECTDNAYIDIQLRIASFSQNCDIYPGKDFVQPPTKICVGCPRDIPTNSPELEETLTHTITKLNAENNATFYFKIDNVKKARVQVVAGKKYFIDFVARETTCSKESNEELTESCETKKLGQSLDCNAEVYVVPWEKKIYPTVNCQPLGMISLMKRPPGFSPFRSSRIGEIKEETTVSPPHTSMAPAQDEERDSGKEQGHTRRHDWGHEKQRKHNLGHGHKHERDQGHGHQRGHGLGHGHEQQHGLGHGHKFKLDDDLEHQGGHVLDHGHKHKHGHGHGKHKNKGKKNGKHNGWKTEHLASSSEDSTTPSAQTQEKTEGPTPIPSLAKPGVTVTFSDFQDSDLIATMMPPISPAPIQSDDDWIPDIQIDPNGLSFNPISDFPDTTSPKCPGRPWKSVSEINPTTQMKESYYFDLTDGLS
modifications: high molecular weight kininogen
- inhibition of α-thrombin-induced calcium mobilization in fibroblasts (FIG. 5) [1]: inhibited calcium mobilization; also recorded: inhibition
- inhibition of α-thrombin-induced calcium mobilization in endothelial cells (FIG. 6) [2]: inhibited calcium mobilization; also recorded: inhibition
- inhibition of 125-α-thrombin binding to platelets [3]: inhibit

Reference: patent publication US6982249B1, “Bradykinin analogs as selective inhibitors of cell activation” (The Regents of the University of Michigan, priority 1997, dated 2006)
